From the DeepSol protein solubility set

Assay: soluble on expression in E. coli; label from the status in PepcDB or PDB records
In the case of “MGSDKIHHHHHHMYLLDSTIAKKIVSRTMKIIGHNINVMNGQGVILGSGDPKRIGSTHEGALLAIAQNRNVELSDEVASGLHGVKPGINLPLHYQGQIIGVIGITGAPDELAHYGELLKMTAEMIVEQANQQDKLQWENRQREEFILQLIKANTDDEQLQRWAKQLDIDINLPRVAAIIEISEKLSAPIHKTASLINAAASESSVDERNPRVSETLKQVLHLLQNPDRGNLIAMTSMSQLVILKPAFLDGKQWDPELENQRIDKLLQRLPAQMGLHFKIALGHFFPEKGGIARSYQTAQETLNLGKQLNPEGTKYLFEDYSLQVLLSGLKHDWRGQALASPYQQLTQADKNGQLRKTLAAYITHFGDAQQCANALFIHRNTLRYRLDKIQQLTQTDIQSLHGLLSLYLGQLLDTSANPR”, the “soluble on expression in E. coli” value is reported as “not soluble”.
In the case of “MGSDKIHHHHHHMAVKTIRTLAHFITACSEIKVKDDHTLFYRGHASDIYTPFPTIFRNQNDDPKKSRYIESEGELFHNLVTQCPEEFKDCTSTFDFLVKMQHYGLPTRLLDITSNPLVALYFACCTLIPESTKDKNAKNGQVLVYQVPNEEIKYYNSDTVSVISNLARVNTSFNFTDEEDRERFLHSIQAEKPYFKPYIKEAHLHSVICVKPKLDNRRIVKQSGAFFLFGMGKNKTDSIRISDKYRPDIKHIDIPKSSKETLLRELATLSISEATLFPEIDNVARFLKKEVKIKSLVVEEIEEEKLGNEISVAYQEFILNSLVLNTDLLEQIQHNSADRAMLGLYPELLQKAIIESQENYNEIALKLLVEEDSADKFAKNIFSKLKHKLEELS”, the “soluble on expression in E. coli” value is reported as “not soluble”.
With “MEKPVMCKIIDVLDESPTVKTFLLDKEFDFKPGQFAMVWIPEIDEKPFGFSSKNSISIAKVGRFTEKIHSLKKGDLLGIRGPYGNNFEYMGSKILAVAGGIGSAPIISAVEKFSKMDVEVTSIIGGRTKDELLFLDRFEKCGRTFACTDDCSYGFGGFTTEKMLELLSKEKFDMIISCGPEIMMKKVVEIAEKHAIPIQVSLERYMKCGIGICGHCAVDDEGLCICKDGPVFWNDKLKFVSEFGKYKRDASGAIL” the “soluble on expression in E. coli” value was “not soluble”.
With “MWVEKKKDKKGNITYQYRERYTDPRTGKTQKVTTTLAKNTKQAENAARRELEIKIQKILTDYEEEKRLENLIKNEGVIPNDKTLEDMIKEWFDYIQDPKSKERKKGSTLSGYSYGIDSLLNEFLVIEKDKRIQDLTFDDIQAFYDRMIFDFEYQKSYIKRFRAIIRGAFTLAYKKRYIKNLDAINLSKIVTPAKTVDDLINEQVPRYLEKAEAEQIFQVLNGYNPLYTQILELQFHTGMRFGELIALESKNFHDGFLLDIHGTYDHATRSHTRGQKVPPKTRKSFRTIELGDAAVQIIKDRMYHNHFIKNKNSDFLFVTSNDRPYDLGTINSFIASHQIEFNTSTKVSTHVFRHTHISMLAEKSIPIQVIMDRVGHEDRETTEKIYMHVTKKQKTDLVKTLNEL” the “soluble on expression in E. coli” value was “not soluble”.
For “MRYITAGESHGPQLTTIIEGVPAGLPLVADDINEELARRQKGYGRGRRMQIETDQVQIVSGVRHGETLGSPIALVVENRDFAHWTKIMGAEPLTEQEEKEMKRKVTKPRPGHADLNGAIKYGHRDMRNVLERSSARETTVRVAAGAVAKKVLAELGITVAGHVIEIGGVEAKETTYRSIEELKSITEASPVRCLDEEAGNQMIKAIDDAKSNGDSIGGIVEVIVEGMPIGVGSYVHYDRKLDAKLAAAIMSINAFKGVEIGIGFEAAHRPGSEVHDEILWNEEHGYTRRTNNAGGLEGGMTTGMPIVVRGVMKPIPTLYKPLQSVDIDTKEPFTASIERSDSCAVPAASVVAEAVVAWELATALIEQFGLDRMDLIRENIEKHNEYARGF”, the “soluble on expression in E. coli” value was “not soluble”.
In the case of “ILKELENLSPEEAAHQKAVVETLLQEDPWRVAKMVKSYLQQHNIPQREVVDTTGLNQSHLSQHLNKGTPMKTQKRAALYTWYVRKQREVAQQFTHAGQGGLIEEPTGDELPTKKGRRNRFKWGPASQQILFQAYERQKNPSKEERETLVEECNRAECIQRGVSPSQAQGLGSNLVTEVRVYNWFANRRKEEAFR”, the “soluble on expression in E. coli” value is reported as “soluble”.
For “MSLVNMEFLKRSFAPLTEKQWQEIDNRAREIFKTQLYGRKFVDVEGPYGWEYAAHPLGEVEVLSDENEVVKWGLRKSLPLIELRATFTLDLWELDNLERGKPNVDLSSLEETVRKVAEFEDEVIFRGCEKSGVKGLLSFEERKIECGSTPKDLLEAIVRALSIFSKDGIEGPYTLVINTDRWINFLKEEAGHYPLEKRVEECLRGGKIITTPRIEDALVVSERGGDFKLILGQDLSIGYEDREKDAVRLFITETFTSRLSTRRPEGHHHHHH”, the “soluble on expression in E. coli” value was “soluble”.
In the case of “MALPQRQIVRAENVKIGISWQCALCDLDIYARPLPGAEVIYFGRMVTTHGRYWKDYRNSPQPTNGYETISFDVPLDLRPVVIAINFYEGEAPQGVSGEIRIAVDENTYAAPFHISATRGNRGQGVAKIIETGKASGNHSVIVDPLHIIRAR”, the “soluble on expression in E. coli” value is reported as “not soluble”.
In the case of “MENTEKLKNSKEVIAYIAECFPNCFTLEGEAKPLKIGIFQDLADRLNDDPKVSKTQLRAALRQYTSSWRYLHGVKPGATRVDLDGNPCGELEEQHVEHAQAALAESKARVEARRKEQVKKVREEAKANKPKAKKPQQARRPQNAPKVEKKPVETRALAASELNVGNQVNVNMGKGNMAATIVEVNKEDVRVQLANGLQMVVKAEHLRA”, the “soluble on expression in E. coli” value is reported as “not soluble”.
In the case of “MFERLREDIQSVFHRDPAARNAFEVLTCYPGMHAIWLHRLGNALWRRDFKWLARLVSNFGRWLTGIEIHPGATIGRRFFIDHGMGIVIGETAEIGDDVTLYQGVTLGGTSWNKGKRHPTLENGVVVGAGAKVLGPFTVGAGAKIGSNAVVTKAVPAGATAVGIPGRIIVKSEDTEVEAKRKAMAEKIGFDAYGVSGDMPDPVARAIGQMLDHLQAVDERLEGMCGALTKMGSDYCAKELPALPEDDFSLEHHHHHH”, the “soluble on expression in E. coli” value is reported as “soluble”.
In the case of “STDYGEEQRNELEALESIYPDSFTVLSESPPSFTITVTSEAGENDETVQTTLKFTYSEKYPDETPLYEIFSQENLEDNDVSDILKLLALQAEENLGMVMIFTLVTAVQEKLNEIVDQIKTRREEEKKQKEKEAEEAEKKLFHGTPVTIENFLSWKAKFDAELLEIKKKRMKEEEQAGKNKLSGKQLFETDHNLDTSDIQFLEDAGNNVEVDESLFQEMDDLELEDGEDDPDYNPVAPGSDSSD”, the “soluble on expression in E. coli” value is reported as “soluble”.
In the case of “MNNIQTNTRDQDSLEYILQLELDNIRLFLELLEHERNLLAAGNLDDLALLVADKDRLIDQFARLDMRRNRFLNAAGLPEGTQGMNAWVSGSDEESTVARDWEELLGLADLAKQLNQTNAVITSSWLQYTRRTLNALHSAAGRPPLYNTKGQTT”, the “soluble on expression in E. coli” value is reported as “not soluble”.
With “MSERRIDVNRSNYSVIDNEFGNMRDRFEQEMRRVEEEMKRLRSEFEGYRPNGGPPAAISNQPYNAYSNTSSHHETSNRTGGFGSPLPPPSFHGPSDLMAHRPTYDPYLDNLKSPLIKDESDGKTLRLRFDVANYKPEEVTVKTIDNRLLVHAKHEEKTPQRTVFREYNQEFLLPRGTNPEQISSTLSTDGVLTVEAPLPQLAIQQ” the “soluble on expression in E. coli” value was “not soluble”.
In the case of “MKEVQETAEKIRTMEIRGAGRIAKAAAEVIRDYAAGLEAASIEEFAAGITEVSNYLISTRPTAVSLPNAVKLSSRYSSDNVENARKEVINNANLFIERADKALGRIGKIGAGRVQDGDVIMTHCNSHAALSIITTAFEDGKNISVIATESRPRRQGLLTVRRLNGFGIPTTLIVDSAVRYYMKDVDKVIVGADAIAANGALVNKIGTSQLALAAHEARKSFMVAAETFKFSPSTILGIPIEIEERSTDEVVDPSVLAELPHVQVKNPAFDFTPSEYIDMIVTDIGIIPPAMAYIVIKEHLGWEFEEIAAALEHHHHHH”, the “soluble on expression in E. coli” value is reported as “not soluble”.
With “MGHHHHHHSHMGRGSGTFERLLDKATSQLLLETDWESILQICDLIRQGDTQAKYAVNSIKKKVNDKNPHVALYALEVMESVVKNCGQTVHDEVANKQTMEELKDLLKRQVEVNVRNKILYLIQAWAHAFRNEPKYKVVQDTYQIMKVEGHVFPEFKESDAMFAAERAPDWVDAEECHRCRVQFGVMTRKHHCRACGQIFCGKCSSKYSTIPKFGIEKEVRVCEPCYEQLNRKAEGK” the “soluble on expression in E. coli” value was “soluble”.
For “MNIAVASGKGGTGKTTVAVNLAASYAMQGLPVTLVDCDVEEPNAHLFVDARWQVRSLCGVPVPAIDPDRCLGESCRRCVEACRFKALAMLGGELLVFAELCHGCGLCELVCPAGVVGTASRPVGEVRQGVASCHVHGETCHMAFRDGVLRVGEAMATPLIKAVKRTAEDANATSHAGYGVTLWDCPPGTACATINALDEADFVVLVAESTAFGLHDLRLAVGLVCHLGLPHGIVINRFGMGDDRVATWAASEGIDVLGRLPFSLEAASRNAGGGLLLDASHDLEAAYRDLGARLLEKGIRSLEHHHHHH”, the “soluble on expression in E. coli” value was “not soluble”.
In the case of “MSLYQAIVFFDLDSTLFDDNKHVLPASVAAIHEMQQHHILPVIATGRNIFEIQYVLDGTGIDSVVGANGSYVQYQGQRLAAAVIAPELLTAVTSFAQRQHDPIAYYTSQGFRLSQANADTTENFQLLRLHPIVDPAWYATHQINFLNVFNRDHDQLYQEKFSGQLTFVRNNPRCLDTMVNGVTKQSGIRTLIQQAGLQGIKTYAFGDGYNDLQMFDEVDVPISMGNGVAAAKEKAAYVTTTNTTDGIVRGLRHFGLIQEGHHHHHH”, the “soluble on expression in E. coli” value is reported as “soluble”.
With “SEDDAPVIYGLEFQARALTPQTAETDAIRFLVGTQSLKYDNQIHIIDFDDENNIINKNVLLHQAGEIWHISASPADRGVLTTCYNRTSDSKVLTCAAVWRMPKELESGSHESPDDSSSTAQTLELLCHLDNTAHGNMACVVWEPMGDGKKIISLADNHILLWDLQESSSQAVLASSASLEGKGQLKFTSGRWSPHHNCTQVATANDTTLRGWDTRSMSQIYCIENAHGQLVRDLDFNPNKQYYLASCGDDCKVKFWDTRNVTEPVKTLEEHSHWVWNVRYNHSHDQLVLTGSSDSRVILSNMVSISSEPFGHLVDDDDISDQEDHRSEEKSKEPLQDNVIATYEEHEDSVYAVDWSSADPWLFASLSYDGRLVINRVPRALKYHILL” the “soluble on expression in E. coli” value was “soluble”.
In the case of “MVTLILLAGGSGTRASLNLPKQYYRIEEKMVIEYTLENVSRVKGVDNIILVSNPRFMDTALELKESFPKIKDVAKGGRTRNESIYNGFMKVPQKESKILVHDAVRPFTPRWVFERIISLLDERDVITTVNPITGNLIELDNGKVKRIYDRSKFAIGEAPTGYRYGALKKTLEVAVSNGTLNEIPHDIVLAMNAGFDVYVLPCNCFNLKITFKEDIEIARTLIKMLEERE”, the “soluble on expression in E. coli” value is reported as “soluble”.
For “MGHHHHHHSHMKNLFLTSSFKDVVPLFTEFESNLQGKTVTFIPTASTVEEVVFYVEAGKKALEKLGLFVVELDVATESLDHIAATLRKNDFIYVTGGNTFFLLQELKRTGADKLILEEIAAGKLYIGESAGAVITSPNIAYIQSMDSPKKAEQLTNYDALNLVDFCTLPHYNNIPFKKITQKIVADYTKSLKMHPISNHEAILVRDEEVITKLANGKTD”, the “soluble on expression in E. coli” value was “soluble”.
In the case of “MSLKASLLQEQSLRLAMTQELRQAITMLQYNVQELSEFLYEQSLENPLIELGGFEREKKKSSNNSKSTSKQVENQMEIYSVDSTTIQQHLLNQIQYYKIEEEERKVASFIIMNMDGNGYLQETNEELANLLSAPLHVVDRSVELVQSLEPAGVGARNIQECLTLQLKRLQRRNGLAEEVVEDHFAYFVKKDWRKLVQVLKCSNEELQDAVNCITSLQPKPGLAFSSDKPLYIVPDMAVKKDGDRLVLQMNERNMPRIEIHSEYSALLNNSESEVASYVSEKYQHVQWIMRSLKQRKQTLLQVMTIIMEKQRDFFWKGPEYLKPLALKEVAEELSVHESTISRATRNKYVQTPHGLFEMKSFFSNAVSTTEDEAVSTKRVKQFIQTLVEAENKKKPLSDQKISKLLEEEHEIVISRRTVAKYREQMHIPASSLRKTIGEGHHHHHH”, the “soluble on expression in E. coli” value is reported as “not soluble”.
